This is an account of results in EP4813403A1 (Hangzhou Zhongmeihuadong Pharmaceutical Co., Ltd., dated 2025).

The target in the experiment is T1, human GIP receptor (human, UniProt P48546 22-466).
T1 sequence (looked up): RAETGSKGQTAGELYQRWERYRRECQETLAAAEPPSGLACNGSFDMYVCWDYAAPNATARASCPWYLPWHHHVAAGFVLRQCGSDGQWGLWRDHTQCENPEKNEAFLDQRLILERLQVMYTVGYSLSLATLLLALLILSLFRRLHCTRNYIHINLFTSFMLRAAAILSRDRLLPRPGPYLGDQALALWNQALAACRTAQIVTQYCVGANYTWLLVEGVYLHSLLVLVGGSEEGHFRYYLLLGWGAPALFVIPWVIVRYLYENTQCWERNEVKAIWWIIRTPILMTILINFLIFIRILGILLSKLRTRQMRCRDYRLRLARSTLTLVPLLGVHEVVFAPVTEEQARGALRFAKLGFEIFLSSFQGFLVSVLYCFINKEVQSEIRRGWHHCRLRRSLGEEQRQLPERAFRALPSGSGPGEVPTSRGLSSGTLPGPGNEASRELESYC
Briefly: cell-based or functional assay.

B1: P007 (peptide)
peptide: YXEGTXTSDYXIXLDKQAQAEFVKWLLKGGPSSGAPPPSK
modifications: Aib at 2; αMePhe at 6; Aib at 11; Aib at 13; K at position 24 ε-amino conjugated with ([2-(2-amino-ethoxy)-ethoxy]-acetyl)2-(γ-Glu)1-CO-(CH2)16-CO2H; C-terminal primary amide
For the molecule B1, the “EC50 value (ratio: EC50 of endogenous ligand / EC50 of test compound), LANCE Ultra cAMP assay, HEK293/GIPR cells” value came out at 1.15 ratio.
